Data taken from patent US20130095092A1.

Molecular target: Mannose 6-phosphate receptor (M6P receptor) on human MPS IIIB (NaGlu deficient) fibroblasts (human), P11717
Assay: cell-based or functional assay

Sequence of Mannose 6-phosphate receptor (M6P receptor) on human MPS IIIB (NaGlu deficient) fibroblasts (human), P11717 (P11717 41-2491): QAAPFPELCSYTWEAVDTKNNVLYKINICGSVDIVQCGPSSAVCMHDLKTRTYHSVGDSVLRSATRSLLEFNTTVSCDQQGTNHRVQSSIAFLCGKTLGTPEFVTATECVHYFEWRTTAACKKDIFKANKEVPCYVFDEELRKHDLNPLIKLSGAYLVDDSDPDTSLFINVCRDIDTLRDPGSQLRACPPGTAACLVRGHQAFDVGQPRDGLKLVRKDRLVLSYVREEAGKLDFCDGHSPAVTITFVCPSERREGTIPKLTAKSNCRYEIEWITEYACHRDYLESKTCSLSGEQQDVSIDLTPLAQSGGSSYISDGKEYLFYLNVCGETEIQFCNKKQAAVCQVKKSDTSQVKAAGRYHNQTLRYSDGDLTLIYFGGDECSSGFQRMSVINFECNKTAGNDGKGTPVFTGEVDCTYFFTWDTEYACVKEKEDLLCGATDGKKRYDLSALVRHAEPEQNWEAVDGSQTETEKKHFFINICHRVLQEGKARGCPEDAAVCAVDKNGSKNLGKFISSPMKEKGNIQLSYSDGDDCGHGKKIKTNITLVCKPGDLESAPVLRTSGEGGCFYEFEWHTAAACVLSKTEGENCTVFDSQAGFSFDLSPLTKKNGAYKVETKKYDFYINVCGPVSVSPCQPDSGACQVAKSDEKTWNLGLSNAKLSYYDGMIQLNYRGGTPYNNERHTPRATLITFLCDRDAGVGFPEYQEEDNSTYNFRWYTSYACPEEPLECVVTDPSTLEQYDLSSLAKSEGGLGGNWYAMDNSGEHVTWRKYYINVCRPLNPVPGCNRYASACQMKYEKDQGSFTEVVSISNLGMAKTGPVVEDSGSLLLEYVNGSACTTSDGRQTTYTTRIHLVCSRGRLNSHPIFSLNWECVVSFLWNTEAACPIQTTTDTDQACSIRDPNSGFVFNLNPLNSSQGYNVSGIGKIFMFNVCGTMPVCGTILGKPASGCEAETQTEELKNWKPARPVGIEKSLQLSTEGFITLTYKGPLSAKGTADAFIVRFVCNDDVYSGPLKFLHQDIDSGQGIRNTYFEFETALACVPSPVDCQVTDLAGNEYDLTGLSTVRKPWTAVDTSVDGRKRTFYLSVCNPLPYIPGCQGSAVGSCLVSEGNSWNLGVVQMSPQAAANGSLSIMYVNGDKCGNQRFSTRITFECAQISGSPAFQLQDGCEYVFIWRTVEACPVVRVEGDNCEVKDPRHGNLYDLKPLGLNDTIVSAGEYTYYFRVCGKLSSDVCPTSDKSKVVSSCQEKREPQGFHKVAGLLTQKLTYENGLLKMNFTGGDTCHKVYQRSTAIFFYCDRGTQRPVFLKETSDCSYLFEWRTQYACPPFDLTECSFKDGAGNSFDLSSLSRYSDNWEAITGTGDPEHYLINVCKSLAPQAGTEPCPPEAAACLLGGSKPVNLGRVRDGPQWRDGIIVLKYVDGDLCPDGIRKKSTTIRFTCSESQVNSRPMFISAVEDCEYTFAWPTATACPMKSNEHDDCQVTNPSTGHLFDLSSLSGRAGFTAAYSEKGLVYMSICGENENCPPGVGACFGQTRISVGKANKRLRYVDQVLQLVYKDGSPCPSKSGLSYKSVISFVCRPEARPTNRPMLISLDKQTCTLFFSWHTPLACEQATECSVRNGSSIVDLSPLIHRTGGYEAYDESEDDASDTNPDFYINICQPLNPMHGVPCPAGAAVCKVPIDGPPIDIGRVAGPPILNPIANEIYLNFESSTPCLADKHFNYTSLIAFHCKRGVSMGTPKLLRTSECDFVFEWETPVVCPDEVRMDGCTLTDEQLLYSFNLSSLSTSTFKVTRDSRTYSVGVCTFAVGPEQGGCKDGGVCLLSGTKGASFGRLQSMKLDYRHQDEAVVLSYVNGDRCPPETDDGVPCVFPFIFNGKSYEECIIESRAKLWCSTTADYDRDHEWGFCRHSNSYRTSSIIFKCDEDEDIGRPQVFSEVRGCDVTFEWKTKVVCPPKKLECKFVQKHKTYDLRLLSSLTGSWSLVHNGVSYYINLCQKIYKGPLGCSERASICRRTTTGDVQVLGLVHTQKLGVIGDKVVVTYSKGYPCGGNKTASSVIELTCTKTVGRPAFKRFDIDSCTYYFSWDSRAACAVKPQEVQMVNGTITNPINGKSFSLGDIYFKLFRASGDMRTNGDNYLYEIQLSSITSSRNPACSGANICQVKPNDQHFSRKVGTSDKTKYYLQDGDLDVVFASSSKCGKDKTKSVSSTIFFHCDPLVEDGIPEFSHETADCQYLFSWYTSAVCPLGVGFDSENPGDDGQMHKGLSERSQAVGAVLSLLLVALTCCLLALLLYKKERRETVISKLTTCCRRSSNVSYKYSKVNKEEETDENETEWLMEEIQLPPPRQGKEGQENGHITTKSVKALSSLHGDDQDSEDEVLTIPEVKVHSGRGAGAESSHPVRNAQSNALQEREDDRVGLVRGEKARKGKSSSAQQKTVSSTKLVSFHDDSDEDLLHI

B1: recombinant human N-acetyl-alpha-D-glucosaminidase (rhNaGlu) produced from a transgenic avian (Gallus), P54802 24-743 (enzyme)
chain: DEAREAAAVRALVARLLGPGPAADFSVSVERALAAKPGLDTYSLGGGGAARVRVRGSTGVAAAAGLHRYLRDFCGCHVAWSGSQLRLPRPLPAVPGELTEATPNRYRYYQNVCTQSYSFVWWDWARWEREIDWMALNGINLALAWSGQEAIWQRVYLALGLTQAEINEFFTGPAFLAWGRMGNLHTWDGPLPPSWHIKQLYLQHRVLDQMRSFGMTPVLPAFAGHVPEAVTRVFPQVNVTKMGSWGHFNCSYSCSFLLAPEDPIFPIIGSLFLRELIKEFGTDHIYGADTFNEMQPPSSEPSYLAAATTAVYEAMTAVDTEAVWLLQGWLFQHQPQFWGPAQIRAVLGAVPRGRLLVLDLFAESQPVYTRTASFQGQPFIWCMLHNFGGNHGLFGALEAVNGGPEAARLFPNSTMVGTGMAPEGISQNEVVYSLMAELGWRKDPVPDLAAWVTSFAARRYGVSHPDAGAAWRLLLRSVYNCSGEACRGHNRSPLVRRPSLQMNTSIWYNRSDVFEAWRLLLTSAPSLATSPAFRYDLLDLTRQAVQELVSLYYEEARSAYLSKELASLLRAGGVLAYELLPALDEVLASDSRFLLGSWLEQARAAAVSEAEADFYEQNSRYQLTLWGPEGNILDYANKQLAGLVANYYTPRWRLFLEALVDSVAQGIPFQQHQFDKNVFQLEQAFVLSKQRYPSQPRGDTVDLAKKIFLKYYPRWVAGSW
modifications: here or on the partner: glycosylated; glycans carry mannose-6-phosphate (3.2 moles of M6P per mole of protein), glycosylation sites not stated
M6P inhibition assay: concentration of free M6P monosaccharide that inhibits uptake of 30 µg/mL rhNaGlu into MPS IIIB fibroblasts (enzymatic activity): > 0.03 mM | M6P inhibition assay: inhibition of cellular uptake of 30 µg/mL rhNaGlu into MPS IIIB fibroblasts by 1 mM free M6P (% inhibition of uptake): > 90 | NaGlu activity in MPS IIIB fibroblasts after 24 h uptake of rhNaGlu, relative to wild-type fibroblasts (% of wild-type activity): 50
